In patent publication US20050080013A1 (Pfizer, published 2005):
Non-standard residues stand in square brackets, D forms with d. Primed or numbered codes have the meaning given here. No end group written: not given here. Orn = NCCC[C@H](N)C(=O)O; Nal″ = naphthylalanine; Aib = CC(C)(N)C(=O)O

T1: lecithin:cholesterol acyltransferase (LCAT), purified from human plasma (human, UniProt P04180 25-440)
T1 sequence (looked up): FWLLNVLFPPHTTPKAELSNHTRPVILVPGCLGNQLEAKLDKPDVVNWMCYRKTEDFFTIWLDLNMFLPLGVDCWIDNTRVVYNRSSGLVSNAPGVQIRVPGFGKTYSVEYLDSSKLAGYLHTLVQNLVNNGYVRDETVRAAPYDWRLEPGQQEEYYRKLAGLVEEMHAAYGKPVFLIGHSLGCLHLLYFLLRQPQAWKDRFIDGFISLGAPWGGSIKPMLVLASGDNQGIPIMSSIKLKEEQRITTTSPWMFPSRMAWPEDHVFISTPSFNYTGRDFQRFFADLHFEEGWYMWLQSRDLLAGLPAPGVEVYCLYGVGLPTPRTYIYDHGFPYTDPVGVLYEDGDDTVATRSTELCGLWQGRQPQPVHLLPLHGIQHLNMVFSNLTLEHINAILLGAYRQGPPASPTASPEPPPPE

B1: peptide 171 (peptide)
peptide: PVLELFENLLEKLLDLLQKKLK
B2: peptide 152 (peptide)
peptide: PVFELFENLLERLLDALQKKLK
B3: peptide 176 (peptide)
peptide: PVLELWENLLERLLDALQKKLK
B4: peptide 113 (peptide)
peptide: PVLDEFREKLNEPLEALKQKLK
B5: peptide 12 (peptide)
peptide: PVLDLFRELLNELLEAGKQKLK
B6: peptide 149 (peptide)
peptide: PVLELFENLWERLLDALQKKLK
B7: peptide 163 (peptide)
peptide: PVLELFENLLERLWDALQKKLK
B8: peptide 1 (peptide)
peptide: PVLDLFRELLNELLE[Nal″]LKQKLK
B9: peptide 151 (peptide)
peptide: PVLELFENLGERLLDALQKKLK
B10: peptide 116 (peptide)
peptide: PHLDEFREKLNE[Aib]LEALKQKLK
B11: peptide 173 (peptide)
peptide: PVLDLFDNLLDRLLDLLNKKLK
B12: peptide 119 (peptide)
peptide: PVLDEFREKLNEELEA[Aib]KQKLK
B13: peptide 169 (peptide)
peptide: PVLELFENLLEKLLDALQKKLK
B14: peptide 164 (peptide)
peptide: PVLELFENLLERLLDAWQKKLK
B15: peptide 127 (peptide)
peptide: PVLDLFRELLNELLELLKQKLK
B16: peptide 175 (peptide)
peptide: PVLELFENLLERLLELLNKKLK
B17: peptide 147 (peptide)
peptide: PVLELFENLLERLFDALQKKLK
B18: peptide 122 (peptide)
peptide: PVLDEFREKLNEELEWLKQKLK
B19: peptide 146 (peptide)
peptide: PVLELFENLLERLLDALQKKLK
B20: peptide 115 (peptide)
peptide: PKLDEFREKLNE[Aib]LEALKQKLK
B21: peptide 106 (peptide)
peptide: PVLDLFREKLNEELEALKQKLK
B22: peptide 104 (peptide)
peptide: PLLNELLEALKQKLK
B23: peptide 159 (peptide)
peptide: PVLDLFENLLERLLDALQKKLK
B24: peptide 156 (peptide)
peptide: PVLELFLNLLERLLDALQKKLK
B25: peptide 103 (peptide)
peptide: PVLDEFRELLNEELEALKQKLK
B26: peptide 118 (peptide)
peptide: PVLDEFREKLNE[Aib]LEALEQKLK
B27: peptide 172 (peptide)
peptide: PVLELFLNLLERLGDALQKKLK
B28: peptide 111 (peptide)
peptide: PVLDEFREKLWE[Aib]WEALKQKLK
B29: peptide 162 (peptide)
peptide: PVLELFENWLERLLDALQKKLK
B30: peptide 167 (peptide)
peptide: PVLELFENGLERLLDALQKKLK
B31: peptide 153 (peptide)
peptide: AVLELFENLLERLLDALQKKLK
B32: peptide 144 (peptide)
peptide: [dP]VLELFENLLERLLDALQKKLK
B33: peptide 13 (peptide)
peptide: GVLDLFRELLNEGLEALKQKLK
B34: peptide 145 (peptide)
peptide: GVLELFENLLERLLDALQKKLK
B35: peptide 165 (peptide)
peptide: PVLELFENLLERLLDLLQKKLK
B36: peptide 109 (peptide)
peptide: PVLDEFREKLNERLEALKQKLK
B37: peptide 158 (peptide)
peptide: PVLELFLNLLERLLDWLQKKLK
B38: peptide 105 (peptide)
peptide: PAADAFREAANEAAEAAKQKAK
B39: peptide 174 (peptide)
peptide: [dP][dV][dL][dE][dL][dF][dE][dN][dL][dL][dE][dR][dL][dL][dD][dA][dL][dQ][dK][dK][dL][dK]
B40: peptide 107 (peptide)
peptide: KLKQKLAELLENLLERFLDLVP
modifications: all D-amino acids (lower case)
B41: peptide 112 (peptide)
peptide: PVLDEFREKLNE[Aib]SEALKQKLK
B42: peptide 168 (peptide)
peptide: PVLELFEQLLEKLLDALQKKLK
B43: peptide 120 (peptide)
peptide: PVLDEFREKLNEELE[Aib]LKQKLK
B44: peptide 148 (peptide)
peptide: PVLELFENLLERLGDALQKKLK
B45: peptide 114 (peptide)
peptide: PVLDEFREKLNE[Aib]MEALKQKLK
B46: peptide 121 (peptide)
peptide: PVLDEFREKLNEELEALWQKLK
B47: peptide 161 (peptide)
peptide: PVLELFENLLERLLEALQKKLK
B48: peptide 170 (peptide)
peptide: PVLELFENLLE[Orn]LLDALQ[Orn][Orn]L[Orn]
B49: peptide 11 (peptide)
peptide: PVLDLFKELLQELLEALKQKLK
B50: peptide 166 (peptide)
peptide: PVLELFLNLLEKLLDALQKKLK
B51: peptide 150 (peptide)
peptide: PLLELFENLLERLLDALQKKLK
B52: peptide 14 (peptide)
peptide: PVLDLFRELLNELLEALXQXLX
modifications: Orn (O) at 18, 20, 22
B53: peptide 10 (peptide)
peptide: PVLDLFRELLNELLEA[Nal″]KQKLK
B54: peptide 154 (peptide)
peptide: PVLELFENLLERGLDALQKKLK
B55: peptide 117 (peptide)
peptide: PELDEFREKLNE[Aib]LEALKQKLK
B56: peptide 155 (peptide)
peptide: PVLELFLNLWERLLDALQKKLK
B57: peptide 110 (peptide)
peptide: PVLDEFREKLNE[Aib][Aib]EALKQKLK
B58: peptide 160 (peptide)
peptide: PVLELFENLLERLLDWLQKKLK
B59: peptide 108 (peptide)
peptide: PVLDLFRWLLNE[Aib]LEALKQKLK
B60: peptide 15 (peptide)
peptide: PVLDLFRELWNELLEALKQKLK
B61: peptide 157 (peptide)
peptide: PVLEFFENLLERLLDALQKKLK

Each binder was assayed against T1, lecithin:cholesterol acyltransferase … (assay: cell-based or functional assay).

Point of comparison: B41, “ACTIVITY (%) LCAT” value 0%. Against it:
- B1 — higher, 16%
- B2 — higher, 50%
- B3 — higher, 11%
- B4 — the same, 0%
- B5 — higher, 70%
- B6 — higher, 63%
- B7 — higher, 26%
- B8 — higher, 120%
- B9 — higher, 55%
- B10 — the same, 0%
- B11 — higher, 15%
- B12 — the same, 0%
- B13 — higher, 17%
- B14 — higher, 24%
- B15 — higher, 47%
- B16 — higher, 13%
- B17 — higher, 76%
- B18 — the same, 0%
- B19 — higher, 86%
- B20 — the same, 0%
- B21 — the same, 0%
- B22 — higher, 1%
- B23 — higher, 28%
- B24 — higher, 35%
- B25 — higher, 1%
- B26 — the same, 0%
- B27 — higher, 16%
- B28 — the same, 0%
- B29 — higher, 27%
- B30 — higher, 18%
- B31 — higher, 49%
- B32 — higher, 111%
- B33 — higher, 67%
- B34 — higher, 100%
- B35 — higher, 23%
- B36 — the same, 0%
- B37 — higher, 30%
- B38 — higher, 1%
- B39 — higher, 13%
- B40 — the same, 0%
- B42 — higher, 17%
- B43 — the same, 0%
- B44 — higher, 75%
- B45 — the same, 0%
- B46 — the same, 0%
- B47 — higher, 27%
- B48 — higher, 17%
- B49 — higher, 72%
- B50 — higher, 22%
- B51 — higher, 57%
- B52 — higher, 61%
- B53 — higher, 79%
- B54 — higher, 39%
- B55 — the same, 0%
- B56 — higher, 38%
- B57 — the same, 0%
- B58 — higher, 28%
- B59 — the same, 0%
- B60 — higher, 60%
- B61 — higher, 30%
